In patent US8420776B2, “Ube2G2 binding domain in the ubiquitin ligase gp78 and methods of use thereof” (The United States of America, as Represented by the …, priority 2004, dated 2013):

T1: Ube2G2/MmUbc7 (Mus musculus, UniProt P60605)
T1 construct: made in house; host or cells: coupled in vitro transcription/translation in rabbit reticulocyte lysate or wheat germ
T1 sequence (P60605 1-165): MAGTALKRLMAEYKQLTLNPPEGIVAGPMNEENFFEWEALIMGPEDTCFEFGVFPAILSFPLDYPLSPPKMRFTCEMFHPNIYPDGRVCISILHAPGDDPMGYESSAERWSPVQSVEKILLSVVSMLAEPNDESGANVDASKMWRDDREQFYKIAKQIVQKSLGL

T2: His6-Ube2G2 (Mus musculus, UniProt P60605)
T2 construct: made in house; host or cells: bacteria (pExp17, Gateway)
T2 sequence (P60605 1-165): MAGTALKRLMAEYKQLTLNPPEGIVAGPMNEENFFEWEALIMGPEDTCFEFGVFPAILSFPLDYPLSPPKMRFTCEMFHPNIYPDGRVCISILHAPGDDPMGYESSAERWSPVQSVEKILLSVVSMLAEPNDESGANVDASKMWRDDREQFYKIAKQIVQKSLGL

T3: endogenous Ube2G2 (Homo sapiens, UniProt P60604)
T3 construct: endogenous in cells; host or cells: HEK 293T
T3 sequence (P60604 1-165): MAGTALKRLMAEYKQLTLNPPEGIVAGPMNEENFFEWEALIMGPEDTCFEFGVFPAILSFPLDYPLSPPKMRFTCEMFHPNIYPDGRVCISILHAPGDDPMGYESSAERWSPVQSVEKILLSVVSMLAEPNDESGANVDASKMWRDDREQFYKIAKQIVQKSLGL

T4: Ube2G1 (Rattus norvegicus, UniProt P62255)
T4 construct: made in house; host or cells: in vitro translation in wheat germ (similar results in reticulocyte lysate)
T4 sequence (P62255 1-170): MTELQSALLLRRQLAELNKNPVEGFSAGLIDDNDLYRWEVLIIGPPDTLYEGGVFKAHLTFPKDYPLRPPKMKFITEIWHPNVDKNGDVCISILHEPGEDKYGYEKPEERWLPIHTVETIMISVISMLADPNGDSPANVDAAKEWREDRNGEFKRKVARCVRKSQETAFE

T5: Ubc7p (Saccharomyces cerevisiae, UniProt Q02159)
T5 construct: made in house; host or cells: in vitro translation in wheat germ from pCDNA-DEST47
T5 sequence (Q02159 1-165): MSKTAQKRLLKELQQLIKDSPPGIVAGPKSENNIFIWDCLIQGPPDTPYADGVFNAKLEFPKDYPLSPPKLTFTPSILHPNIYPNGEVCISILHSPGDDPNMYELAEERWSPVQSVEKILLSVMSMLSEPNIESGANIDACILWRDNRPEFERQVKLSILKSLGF

B1: E2-m2: GST-gp78 fusion with residues 579-584 (QRMLVQ) mutated to AAAGGG; in b274 the same mutation in a GFP fusion (protein)
chain: MPLLFLERFPWPSLRTYTGLSGLALLGTIISAYRALSQPEAGPGEPDQLTASLQPEPPAPARPSAGGPRARDVAQYLLSDSLFVWVLVNTACCVLMLVAKLIQCIVFGPLRVSERQHLKDKFWNFIFYKFIFIFGVLNVQTVEEVVMWCLWFAGLVFLHLMVQLCKDRFEYLSFSPTTPMSSHGRVLSLLVAMLLSCCGLAAVCSITGYTHGMHTLAFMAAESLLVTVRTAHVILRYVIHLWDLNHEGTWEGKGTYVYYTDFVMELTLLSLDLMHHIHMLLFGNIWLSMASLVIFMQLRYLFHEVQRRIRRHKNYLRVVGNMEARFAVATPEELAVNNDDCAICWDSMQAARKLPCGHLFHNSCLRSWLEQDTSCPTCRMSLNIADNNRVREEHQGENLDENLVPVAAAEGRPRLNQHNHFFHFDGSRIASWLPSFSVEVMHTTNILGITQASNSQLNAMAHQIQEMFPQVPYHLVLQDLQLTRSVEITTDNILEGRIQVPFPTQRSDSIRPALNSPVERPSSDQEEGETSAQTERVPLDLSPRLEETLDFGEVEVEPSEVEDFEARGSRFSKSADERAAAGGGRKDELLQQARKRFLNKSSEDDAASESFLPLEGASSDPVTLRRRMLAAAAERRLQKQQTS
B2: Cue1pC: GST fusion of the cytoplasmic domain of yeast Cue1p (protein)
chain: QSNQHPSAQRLSATGVNAHGRPQGSTQNALRRTGRVNGGHPVTTQMVETVQNLAPNLHPEQIRYSLENTGSVEETVERYLRGDEFSFPPGFEPSRAPMGANAAVDNNAAGGGEFNDPRKKNMICAENLLDKFHVDLNEDMSNLSFKDLDIEERKRLLVWQARKNLETKLQSDKDLQSLLT
modifications: left off: a dimerising Fc or GST
notes: GST fusion of the cytoplasmic domain of yeast Cue1p

How the values were obtained:
[1] = biological target: T1, Ube2G2/MmUbc7; assay: GST pull-down binding of in vitro translated 35S-Met Ube2G2/MmUbc7; parameters: species or system human; conditions: GST fusion pull-down; 35S-Met labeled E2
[2] = biological target: T2, His6-Ube2G2; assay: Direct binding of bacterially expressed His6-Ube2G2 to GST fusions; conditions: purified E2, anti-His6 immunoblot
Procedure: (§1) GST fusions were purified from E. Coli. Binding was carried out using equi-molar amount of fusion proteins measured by Commassie blue staining. Generally, 20 picomoles/sample were used. In vitro translated E2 was generated by coupled transcription and translation using 35S methionine in either wheat germ or rabbit reticulocyte lysate. Binding assays using in vitro translated E2 was carried out by incubating GST protein pre-bound to Glutathione-sepharose 4B with […] of ^35S-methionine labeled E2 in binding buffer (25 mM Tris-HCl, pH 7.4; 50 mM NaCl, 5 mM DTT; and 0.5% NP-40) overnight at 4° C. Beads were washed with binding buffer and resolved by SDS-PAGE under reducing conditions. Analysis was by Storm PhosphoImager (Applied Biosystems, Foster City, Calif.). Direct binding assays used wild type His6-MmUbc7 (His6-Ube2G2) and Glutathione-sepharose bound GST fusions. Beadbound GST protein was incubated with 100 ng purified His6-MmUbc7 in binding buffer and washed and eluted as above. After transfer to Hybond-P (Amersham Biosciences) binding was assessed with anti-His6 followed by Enhanced Chemiluminescence ECL; Pierce). Ubiquitin binding studies were performed with binding and washing as above using 1 μg K48 tetra-ubiquitin produced as described (Piotrowski et al., 1997). Detection was by anti-ubiquitin immunoblotting.

[3] = biological target: T3, endogenous Ube2G2; assay: Co-immunoprecipitation of endogenous Ube2G2 with GFP fusions in HEK 293T cells; format: cell-based; conditions: anti-GFP IP
Procedure: Transfections of HT1080, NIH 3T3 and HEK 293T cells were carried out ˜24 hr after plating using Polyfect (Qiagen, Valencia, Calif.) and cells harvested after ˜48 hr. J558 cells were transfected by electroporation using Bio-rad GENE pulser II at settings of 250 v, 950uF. Vector without insert was used to equalize total plasmid. In most experiments 0.15 μg of pEGFP-C1 served as an internal control. For experiments not involving immunoprecipitation, 6×10^5 cells were plated in 6 well plates and cell lysis was with Mammalian Protein Extraction Reagent (Pierce). […] Supernatants were analyzed after a 10,000×g centrifugation using standard techniques for immunoprecipitation, SDS-PAGE, immunoblotting and ECL. […]
FIG. 6 depicts the specific binding of gp78 residues 574-611 (of SEQ ID NO:2) to endogenous Ube2G2 in HEK 293T cells. Cells were transfected with plasmids encoding GFP fusions of the indicated regions of gp78, and co-immunoprecipitation was evaluated. […]
To determine the specificity of E2 binding in cells, GFP fusions encompassing the E2 binding region were expressed in cells, and co-immunoprecipitation of endogenous E2 was tested using antibodies raised specifically against Ube2g1, Ube2G2 and UbcH5B (FIG. 19B). […] In contrast, and consistent with the in vitro binding data in FIG. 18, no association with endogenous UbcH5B or Ube2g1 was detected (FIG. 19B third and fourth panels, left). […]

[4] = test system: ERAD substrate CD3-δ; assay: Cycloheximide chase of CD3-δ in co-transfected cells; format: cell-based; conditions: co-transfection with HA-CD3-δ
Procedure: (§2) Transfections of HT1080, NIH 3T3 and HEK 293T cells were carried out ˜24 hr after plating using Polyfect (Qiagen, Valencia, Calif.) and cells harvested after ˜48 hr. J558 cells were transfected by electroporation using Bio-rad GENE pulser II at settings of 250 v, 950uF. Vector without insert was used to equalize total plasmid. In most experiments 0.15 μg of pEGFP-C1 served as an internal control. For experiments not involving immunoprecipitation, 6×10^5 cells were plated in 6 well plates and cell lysis was with Mammalian Protein Extraction Reagent (Pierce). For immunoprecipitation, 2.4×10^6 cells were seeded in 100 mm dishes and cells were lysed in RIPA buffer (1×PBS, 1% Nonidet P40. 0.5% sodium deoxycholate, 0.1% SDS). Lysis buffers were supplemented with Protease Inhibitor Cocktail (Sigma) and 10 mM iodoacetamide. Supernatants were analyzed after a 10,000×g centrifugation using standard techniques for immunoprecipitation, SDS-PAGE, immunoblotting and ECL. Treatment of cells with MG132 (Sigma) was at 50 μM for eight hr. Cycloheximnide was used at 50 μg/ml. All cells were collected at the end of the six hr chase.
(§3) To evaluate protein turnover in more detail, cycloheximide chase experiments were performed (FIGS. 20C and 20D). […] In agreement with FIG. 20A, CD3-δ degradation was accelerated with wild type gp78 (FIGS. 20C and 20D middle panels; effects of full-length forms of gp78 on CD3-δ from FIGS. 20C and 20D are quantified in FIG. 20E).

[5] = test system: gp78; assay: Cycloheximide chase of gp78 in transfected cells; format: cell-based; conditions: compared to wild type gp78
Procedure: as §2, §3

[6] = biological target: T4, Ube2G1; assay: GST pull-down binding of in vitro translated Ube2G1; conditions: GST fusion pull-down
From the text: Plasmids encoding the following have been described: rat Ubc7 (Ube2g1) (Lin and Wing, 1999); UbcH5B (Jensen et al., 1995); Myc-MmUbc7, C89S Myc-MmUbc7, HA-CD3-δ and 2B4 TCR-α (Tiwari and Weissman, 2001); GST-gp78 309 to 643, 508 or 428 and full length gp78 and the double RING finger mutation gp78Rf-m in pCINeo (Fang et al., 2001); and GST-UBA-Cbl-b (Davies et al., 2004). Plasmids encoding Ubc7p and His6-MmUbc7 were generated by PCR and subcloned into pCDNA-DEST47 or pExp17 respectively using Gateway (Invitrogen, Carlsbad, Calif.). GST-AO7 (92 to 259) was subcloned from full length A07 (Lorick et al., 1999). GST-gp78 beginning at 429, 503, 522, 542, 561, 574, 587, or 596 and ending at 643 GST-gp78 beginning at 435 and ending at 507 and GST-Cue1p 24-203 (Cue1pC) were generated by PCR and cloning into pGEX4T-1 (Amersham Biosciences, Piscataway, N.J.). N-terminal Flag-tagged constructs were created by PCR and cloning into pFlag-CMV6 (Sigma). N-terminal GFP-tagged constructs were generated by subcloning from pFLAG-CMV6 to pEGFP-C1 (BD Biosciences, Palo Alto, Calif.). […]
GST fusions were purified from E. Coli. Binding was carried out using equi-molar amount of fusion proteins measured by Commassie blue staining. […] After transfer to Hybond-P (Amersham Biosciences) binding was assessed with anti-His6 followed by Enhanced Chemiluminescence ECL; Pierce). […]

[7] = biological target: T6, UbcH5B (Homo sapiens, UniProt P62837); assay: GST pull-down binding of in vitro translated UbcH5B; conditions: GST fusion pull-down
T6 construct: made in house; host or cells: in vitro translation in wheat germ
Procedure: as §1, with “immunoblotting. […]” for “immunoblotting.”

[8] = biological target: T5, Ubc7p; assay: GST pull-down binding of in vitro translated Ubc7p; parameters: species or system yeast; conditions: GST fusion pull-down
Procedure: as §1, with “immunoblotting. […]” for “immunoblotting.”

[9] = biological target: T7, lysine 48-linked (K48) tetra-ubiquitin (Homo sapiens, UniProt P0CG47); assay: Tetra-ubiquitin binding to GST fusions; conditions: anti-ubiquitin immunoblot
T7 construct: 1 μg K48 tetra-ubiquitin produced as described (Piotrowski et al., 1997); made in house
Procedure: as §1

T6 sequence (P62837 whole entry, the tested form may be a part): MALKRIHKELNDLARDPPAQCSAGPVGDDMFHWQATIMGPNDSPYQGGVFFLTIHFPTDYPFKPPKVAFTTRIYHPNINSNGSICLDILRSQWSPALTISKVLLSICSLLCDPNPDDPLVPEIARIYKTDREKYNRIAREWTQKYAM

Row | Molecule | binding to in vitro translated Ube2G2/MmUbc7 [1] | direct binding of His6-Ube2G2 [2] | co-immunoprecipitation of endogenous Ube2G2 [3] | effect on CD3-δ degradation [4] | gp78 stability [5] | binding to in vitro translated Ube2G1 [6] | binding to in vitro translated UbcH5B [7] | binding to in vitro translated yeast Ubc7p [8] | binding of K48 tetra-ubiquitin [9]
1 | B1 | loss of binding | disrupted binding | abrogated binding | minimal stabilization of CD3-δ | stabilized gp78 | – | – | – | –
2 | B2 | bound | – | – | – | – | no binding | bound to neither | bound | no binding
